No end group written: not given here.
Target: T1, SpyCatcher002‐mut (H26Q H62Q), cleaved with TEV protease
T1 construct: Second-generation SpyCatcher (SC002) redesigned with H26Q and H62Q; also called SC1m; SCm; source: recombinant, purified; not shown: HisTag, N-terminal, cleaved
Experiment: LC-MS of the covalent adduct; 25 μM each in 20 mM HEPES, pH 7.4, room temperature, injected after 5 min; isopeptide-bonded ST/SC adduct detected by MS; repeated with Cu2+ without effect on adduct formation
Conditions: both partners purified

T1 sequence (chain, as listed by the source): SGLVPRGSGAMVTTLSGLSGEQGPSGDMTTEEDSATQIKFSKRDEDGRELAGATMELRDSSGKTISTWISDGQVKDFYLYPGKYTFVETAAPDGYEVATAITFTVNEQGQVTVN

B1: ATCUN(GSH)‐SpyTag002 (peptide)
peptide: GSHVPTIVMVDAYKRYK
notes: SpyTag002 peptide with an N-terminal GSH ATCUN copper site; also called ST‐A1; ST; source: synthetic peptide (solid‐phase peptide synthesis, RP‐HPLC)
B1: binds.

B2: ATCUN(DAH)‐SpyTag002 (peptide)
peptide: DAHVPTIVMVDAYKRY-NH2
notes: SpyTag002 peptide with an N-terminal DAH ATCUN copper site; lacks the last lysine and ends with an amidated tyrosine; also called ST‐A2; ST; source: synthetic peptide (solid‐phase peptide synthesis, RP‐HPLC)
B2: binds.

— article PMC12278347, “Exploiting SpyTag/SpyCatcher Technology to Design New Artificial Catalytic Copper Proteins” (Chembiochem, 2025)
